Data as given in US20200109197A1.

Target: recombinant anti-human CD3 antibody with TEV cleavage site in the upper hinge region of mouse IgG1 (mouse) [IgG part: P01868]
Experiment: cell-based or functional assay

AcTEV™ Protease (from UniProt P04517 2038-2279) (enzyme)
kappa-positive faction of beads after one hour incubation with the protease, 37° C.: 7% | kappa-positive faction of beads after one hour incubation with the protease, room temperature: 19%
